This note sets out measurements from PMC6588694.

The experiment concerns the target concanavalin A. As to the kind of experiment: SEC; Superdex 200 Increase 10/300 GL, 50 mM Tris, 150 mM NaCl, 100 mM glucose; molecular weight calibrated with a gel filtration calibration kit. A general note: Size exclusion chromatography separates by hydrodynamic size, large species first.

With concanavalin A (natural protein), the stoichiometry N (in general, the number of molecules, sites or subunits per partner or assembly) was 4.
